Source: publication PMC7886630

Columns and labels:
[1] = biological target: deglycosylated ACE2 treated with PNGase F (human) (UniProt Q9BYF1); assay: AFM single-molecule force spectroscopy
[2] = biological target: soluble recombinant human ACE2 (Gln18-Ser740), His-tagged (human) (UniProt Q9BYF1); assay: AFM single-molecule force spectroscopy

For “SARS-CoV-1 spike receptor-binding domain (residues 318-510) with C-terminal Fc tag (Fc fusion; modification not given)”, the koff [1] was 3.4 s⁻¹ and the koff [2] was 0.57 s⁻¹.
